Results reported in the supplement of paper PMC7125110.
± gives the standard error. For part of these data: Variants at the floor of the assay were thinned out.

B1: glmS ribozyme (parent)
chain: AUAAAAGCGCCAGAACUACAGAAAUGUAGUUGACGAGGAGGAGGUUUAUCGAAUUUUCGGCGGAUGCCUCCAAA

Tests used:
Details in all cases: with glucosamine-6-phosphate
glucosamine-6-phosphate [1] = variants of: B1; assay: self-cleavage kobs at 40 uM GlcN6P; higher = faster cleavage; RNA array
Procedure, shortened: (§1)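 Barcoded ribozyme variants, transcribed in situ by E. coli RNA polymerase on sequenced MiSeq chips, were followed via a hybridised Cy3 probe at 37 °C. Glucosamine-6-phosphate ranged from 40 μM to 10 mM in HEPES/KCl/Mg(OAc)2 buffer. kobs came from decay fits to per-tile medians, and kcat and KM from weighted Michaelis–Menten fits.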

glucosamine-6-phosphate [2] = variants of: B1; assay: self-cleavage kobs at 10000 uM GlcN6P; higher = faster cleavage; RNA array
Procedure, shortened: as §1

glucosamine-6-phosphate [3] = variants of: B1; assay: kcat; higher = faster cleavage; RNA array
Procedure, shortened: as §1

glucosamine-6-phosphate [4] = variants of: B1; assay: KM; higher = weaker cofactor use; RNA array
Procedure, shortened: as §1

glucosamine-6-phosphate [5] = variants of: B1; assay: self-cleavage kobs at 160 uM GlcN6P; higher = faster cleavage; RNA array
Procedure, shortened: as §1

glucosamine-6-phosphate [6] = variants of: B1; assay: self-cleavage kobs at 640 uM GlcN6P; higher = faster cleavage; RNA array
Procedure, shortened: as §1

glucosamine-6-phosphate [7] = variants of: B1; assay: self-cleavage kobs at 2500 uM GlcN6P; higher = faster cleavage; RNA array
Procedure, shortened: as §1

Variant	self-cleavage kobs at 40 uM GlcN6P (glucosamine-6-phosphate [1]) [s⁻¹]	self-cleavage kobs at 10000 uM GlcN6P (glucosamine-6-phosphate [2]) [s⁻¹]	kcat (glucosamine-6-phosphate [3]) [s⁻¹]	KM (glucosamine-6-phosphate [4]) [µM]	self-cleavage kobs at 160 uM GlcN6P (glucosamine-6-phosphate [5]) [s⁻¹]	self-cleavage kobs at 640 uM GlcN6P (glucosamine-6-phosphate [6]) [s⁻¹]	self-cleavage kobs at 2500 uM GlcN6P (glucosamine-6-phosphate [7]) [s⁻¹]
C34A G37C G60U	< 1e-05	< 1e-05	–	–	–	–	–
G13A U54G	–	0.000537 ± 7.4e-05	0.000682 ± 7.9e-05	2540 ± 550	5.52e-05 ± 1.8e-05	0.000123 ± 2.4e-05	0.000363 ± 6.1e-05
U31G G66A	0.000146 ± 2.4e-05	0.00839 ± 0.0014	–	–	–	0.0011 ± 0.00039	0.00151 ± 0.00042
A12U C70G	0.000124 ± 1.2e-05	0.001 ± 0.00029	–	–	0.000175 ± 2.3e-05	0.000558 ± 0.00013	–
U47G A53C	0.000103 ± 3.4e-05	0.00439 ± 0.0019	0.00406 ± 0.001	2510 ± 860	0.000223 ± 3.9e-05	0.000873 ± 0.00013	0.00196 ± 0.00025
G37A G66A	1.72e-05 ± 8.5e-06	0.00114 ± 0.00018	0.00157 ± 0.00017	4290 ± 740	6.39e-05 ± 2e-05	0.0002 ± 5.4e-05	0.000527 ± 0.0001
A64U G66U	< 1e-05	–	< 1e-05	–	–	–	–
G9U C16G C71U	< 1e-05	–	–	–	–	–	< 1e-05
U46G C71A	5.65e-05 ± 1.3e-05	0.00143 ± 0.00019	0.00159 ± 0.00031	935 ± 350	–	0.000943 ± 0.00016	0.000985 ± 0.00028
G41U G62U	< 1e-05	< 1e-05	–	–	< 1e-05	< 1e-05	< 1e-05
G32A G60A	< 1e-05	–	< 1e-05	–	< 1e-05	< 1e-05	–
G41A G43C G62U	< 1e-05	< 1e-05	–	–	–	–	–
U31G G59C	< 1e-05	< 1e-05	–	–	< 1e-05	< 1e-05	–
U47A C50G C68A	0.000209 ± 7.9e-05	0.000323 ± 6.5e-05	–	–	–	–	–
A33U C50A C68G	4.36e-05 ± 2e-05	–	–	–	–	–	–
A15G C50G C68U	0.000179 ± 3.4e-05	0.000154 ± 3.1e-05	–	–	–	0.000492 ± 0.00016	0.000371 ± 0.00011
U56G G59A C68A	< 1e-05	< 1e-05	–	–	–	< 1e-05	–
C11U C50U	–	–	–	98.2 ± 43	–	–	–
